Experiments:
[1] = target: T1, CCDC66 (full length, GFP- or mCherry-tagged) (human, UniProt A2RUB6 1-948); test: in vitro reconstitution on dynamic microtubules (TIRF microscopy); recruitment of one fluorescent protein to MTs by another that is on the MTs; 15 µM tubulin, with or without 20 nM EB3; MRB80, 50 mM KCl, 1 mM GTP, 30 °C; conditions: both partners purified
T1 construct: CCDC66, human, full-length protein; source: HEK293T, transiently transfected; purified (StrepTactin beads) for in vitro assays; in lysate for coimmunoprecipitation; not shown: GFP or mCherry, N-terminal, kept
T1 sequence (looked up): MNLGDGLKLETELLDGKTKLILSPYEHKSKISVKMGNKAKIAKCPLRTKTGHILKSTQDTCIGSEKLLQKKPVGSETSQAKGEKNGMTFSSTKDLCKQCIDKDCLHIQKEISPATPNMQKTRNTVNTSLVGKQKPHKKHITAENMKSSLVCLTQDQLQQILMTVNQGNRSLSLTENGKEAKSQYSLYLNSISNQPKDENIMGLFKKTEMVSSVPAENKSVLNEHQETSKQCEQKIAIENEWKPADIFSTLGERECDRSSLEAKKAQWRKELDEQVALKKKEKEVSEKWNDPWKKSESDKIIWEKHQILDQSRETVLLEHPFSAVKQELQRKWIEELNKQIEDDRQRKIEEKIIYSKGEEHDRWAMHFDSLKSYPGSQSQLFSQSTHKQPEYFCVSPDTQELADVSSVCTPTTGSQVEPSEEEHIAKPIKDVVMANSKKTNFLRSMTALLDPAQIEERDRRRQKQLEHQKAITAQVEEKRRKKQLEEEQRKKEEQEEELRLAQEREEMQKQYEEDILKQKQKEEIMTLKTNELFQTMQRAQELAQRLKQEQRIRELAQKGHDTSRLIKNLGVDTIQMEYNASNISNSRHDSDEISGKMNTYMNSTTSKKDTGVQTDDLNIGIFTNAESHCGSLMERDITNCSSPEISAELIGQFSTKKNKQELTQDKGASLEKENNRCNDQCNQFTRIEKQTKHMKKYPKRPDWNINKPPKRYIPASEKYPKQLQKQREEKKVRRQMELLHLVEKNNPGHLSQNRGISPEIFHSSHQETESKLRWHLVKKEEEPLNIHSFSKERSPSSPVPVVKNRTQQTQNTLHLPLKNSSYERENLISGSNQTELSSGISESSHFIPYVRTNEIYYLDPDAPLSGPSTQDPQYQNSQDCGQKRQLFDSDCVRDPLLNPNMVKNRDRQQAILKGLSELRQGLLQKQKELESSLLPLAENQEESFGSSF

[2] = target: the molecule itself; test: single-molecule fluorescence intensity counting (TIRF microscopy); GFP-tagged protein diluted in PBS and immobilised on a plasma-cleaned coverslip; intensities compared with single GFP and GFP–EB3 dimers in adjacent chambers
[3] = target: TOGARAM1 (mouse, full length, GFP- or mCherry-tagged) (mouse, UniProt Q6A070 1-1776); test: cell-based or functional assay
Chain of TOGARAM1 (mouse, full length, GFP- or mCherry-tagged) (Q6A070 whole entry): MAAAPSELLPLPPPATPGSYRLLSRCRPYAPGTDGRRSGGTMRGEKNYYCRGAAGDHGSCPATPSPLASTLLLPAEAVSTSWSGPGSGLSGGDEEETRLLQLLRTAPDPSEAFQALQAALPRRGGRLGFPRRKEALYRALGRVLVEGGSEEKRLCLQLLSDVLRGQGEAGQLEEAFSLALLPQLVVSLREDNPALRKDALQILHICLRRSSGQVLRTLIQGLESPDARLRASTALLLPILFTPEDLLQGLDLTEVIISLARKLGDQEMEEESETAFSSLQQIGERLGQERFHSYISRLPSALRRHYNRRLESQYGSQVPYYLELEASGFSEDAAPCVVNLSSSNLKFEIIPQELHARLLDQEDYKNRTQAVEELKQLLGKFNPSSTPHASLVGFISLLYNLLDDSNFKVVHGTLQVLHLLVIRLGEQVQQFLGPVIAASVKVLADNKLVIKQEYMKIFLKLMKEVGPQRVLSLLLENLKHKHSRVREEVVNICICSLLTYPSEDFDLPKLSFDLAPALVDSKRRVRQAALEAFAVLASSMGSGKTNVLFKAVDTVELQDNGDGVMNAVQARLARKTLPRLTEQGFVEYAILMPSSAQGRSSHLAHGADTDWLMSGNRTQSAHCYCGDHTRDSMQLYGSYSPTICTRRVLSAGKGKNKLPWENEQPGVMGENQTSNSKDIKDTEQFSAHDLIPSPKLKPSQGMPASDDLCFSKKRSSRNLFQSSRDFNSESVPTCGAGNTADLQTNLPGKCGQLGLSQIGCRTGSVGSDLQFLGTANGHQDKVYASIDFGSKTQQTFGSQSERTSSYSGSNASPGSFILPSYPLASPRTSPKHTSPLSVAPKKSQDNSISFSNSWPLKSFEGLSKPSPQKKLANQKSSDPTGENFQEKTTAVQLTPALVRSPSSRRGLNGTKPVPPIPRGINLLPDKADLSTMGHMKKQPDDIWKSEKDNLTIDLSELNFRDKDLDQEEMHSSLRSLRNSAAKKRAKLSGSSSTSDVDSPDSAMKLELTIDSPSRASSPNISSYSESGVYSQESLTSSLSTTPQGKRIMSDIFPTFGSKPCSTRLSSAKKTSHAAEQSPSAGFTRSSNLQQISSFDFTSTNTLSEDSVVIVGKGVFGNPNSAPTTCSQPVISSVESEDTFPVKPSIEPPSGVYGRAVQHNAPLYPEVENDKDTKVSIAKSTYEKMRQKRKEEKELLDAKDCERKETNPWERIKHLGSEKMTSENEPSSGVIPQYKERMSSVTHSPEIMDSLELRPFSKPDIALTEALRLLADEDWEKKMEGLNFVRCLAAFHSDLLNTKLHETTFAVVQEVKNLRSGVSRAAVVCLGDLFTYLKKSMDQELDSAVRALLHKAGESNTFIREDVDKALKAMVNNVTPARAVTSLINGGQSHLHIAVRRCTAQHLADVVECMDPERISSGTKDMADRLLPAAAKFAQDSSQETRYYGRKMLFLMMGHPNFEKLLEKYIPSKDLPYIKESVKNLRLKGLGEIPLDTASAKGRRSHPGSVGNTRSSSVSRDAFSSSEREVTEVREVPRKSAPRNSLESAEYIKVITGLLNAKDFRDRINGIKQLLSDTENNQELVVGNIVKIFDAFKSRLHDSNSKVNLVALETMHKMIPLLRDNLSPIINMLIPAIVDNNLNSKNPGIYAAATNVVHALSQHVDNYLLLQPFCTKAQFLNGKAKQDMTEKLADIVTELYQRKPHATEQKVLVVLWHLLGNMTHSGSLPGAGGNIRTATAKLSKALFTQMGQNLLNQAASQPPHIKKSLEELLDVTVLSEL

B1: CEP104 (full length, GFP- or mCherry-tagged) (natural protein, human, UniProt O60308 1-925, looked up)
chain: MPHKIGFVVVSSSGHEDGFSARELMIHAPTVSGWRSPRFCQFPQEIVLQMVERCRIRKLQLLAHQYMISSKIEFYISESLPEYFAPYQAERFRRLGYVSLCDNEKTGCKARELKSVYVDAVGQFLKLIFHQNHVNKYNIYNQVALVAINIIGDPADFSDESNTASREKLIDHYLGHNSEDPALEGTYARKSDYISPLDDLAFDMYQDPEVAQIIRKLDERKREAVQKERYDYAKKLKQAIADLQKVGERLGRYEVEKRCAVEKEDYDLAKEKKQQMEQYRAEVYEQLELHSLLDAELMRRPFDLPLQPLARSGSPCHQKPMPSLPQLEERGTENQFAEPFLQEKPSSYSLTISPQHSAVDPLLPATDPHPKINAESLPYDERPLPAIRKHYGEAVVEPEMSNADISDARRGGMLGEPEPLTEKALREASSAIDVLGETLVAEAYCKTWSYREDALLALSKKLMEMPVGTPKEDLKNTLRASVFLVRRAIKDIVTSVFQASLKLLKMIITQYIPKHKLSKLETAHCVERTIPVLLTRTGDSSARLRVTAANFIQEMALFKEVKSLQIIPSYLVQPLKANSSVHLAMSQMGLLARLLKDLGTGSSGFTIDNVMKFSVSALEHRVYEVRETAVRIILDMYRQHQASILEYLPPDDSNTRRNILYKTIFEGFAKIDGRATDAEMRARRKAATEEAEKQKKEEIKALQGQLAALKEIQAEVQEKESDAVKPKNQDIQGGKAAPAEALGIPDEHYLDNLCIFCGERSESFTEEGLDLHYWKHCLMLTRCDHCKQVVEISSLTEHLLTECDKKDGFGKCYRCSEAVFKEELPRHIKHKDCNPAKPEKLANRCPLCHENFSPGEEAWKAHLMGPAGCTMNLRKTHILQKAPALQPGKSSAVAASGPLGSKAGSKIPTPKGGLSKSSSRTYAKR
notes: CEP104, human, full-length protein; Cloned into pTT5-C1-based expression vectors (vector: Addgene 52355); Dimer by single-molecule counting; also called GFP–CEP104; mCherry–CEP104; source: HEK293T, transiently transfected; purified (StrepTactin beads) for in vitro assays; in lysate for coimmunoprecipitation; not shown: GFP or mCherry, N-terminal, kept
binding result [1]: binds
stoichiometry N [2]: 2

B2: ARMC9 (full length, GFP- or mCherry-tagged) (natural protein, human, UniProt Q7Z3E5 1-818, looked up)
chain: MGDILAHESELLGLVKEYLDFAEFEDTLKTFSKECKIKGKPLCKTVGGSFRDSKSLTIQKDLVAAFDNGDQKVFFDLWEEHISSSIRDGDSFAQKLEFYLHIHFAIYLLKYSVGRPDKEELDEKISYFKTYLETKGAALSQTTEFLPFYALPFVPNPMVHPSFKELFQDSWTPELKLKLIKFLALISKASNTPKLLTIYKENGQSNKEILQQLHQQLVEAERRSVTYLKRYNKIQADYHNLIGVTAELVDSLEATVSGKMITPEYLQSVCVRLFSNQMRQSLAHSVDFTRPGTASTMLRASLAPVKLKDVPLLPSLDYEKLKKDLILGSDRLKAFLLQALRWRLTTSHPGEQRETVLQAYISNDLLDCYSHNQRSVLQLLHSTSDVVRQYMARLINAFASLAEGRLYLAQNTKVLQMLEGRLKEEDKDIITRENVLGALQKFSLRRPLQTAMIQDGLIFWLVDVLKDPDCLSDYTLEYSVALLMNLCLRSTGKNMCAKVAGLVLKVLSDLLGHENHEIQPYVNGALYSILSVPSIREEARAMGMEDILRCFIKEGNAEMIRQIEFIIKQLNSEELPDGVLESDDDEDEDDEEDHDIMEADLDKDELIQPQLGELSGEKLLTTEYLGIMTNTGKTRRKGLANVQWSGDEPLQRPVTPGGHRNGYPVVEDQHTPPQTAQHARNGHPQALPAAHEAVYREGKPSTPESCVSSSSAIIAKPGEWLPRGRQEEPRPAPTGTPRQPREAPQDPGNGVTTRECASAFTCKPRAPCTPEMLDWNPPKAKASVLAPLFSSCGPQQASRPGSTASSTRGLPSSQSHRK
notes: ARMC9, human, full-length protein; Dimer by single-molecule counting; multimers by SEC; also called GFP–ARMC9; GFP-ARMC9 FL; source: HEK293T, transiently transfected; purified (StrepTactin beads) for in vitro assays; in lysate for coimmunoprecipitation; not shown: GFP or mCherry, N-terminal, kept
rescue activity of TOGARAM1 on MTs in the presence of ARMC9 [3]: ~2 fold
stoichiometry N [2]: 2

— publication PMC12170345 (Nature Structural & Molecular Biology, 2025)
